Starred links: 1 amine or outer side, 2 acyl side, 3 side chain; linkers in the order of their positions; H or OH if unused. Non-standard residues stand in square brackets, D forms with d. No end group written: not given here. Tyr(125I) = 125I-labelled Tyr, O=C([C@H](Cc1ccc(O[*:3])c([125I])c1)N[*:1])[*:2]
Key:
[1] = molecular target: cloned human µ opioid receptor (human, UniProt P35372 1-400); experiment: competition vs [3H]DAMGO, COS-7 membranes
Protocol: For radioligand binding assays, cells were harvested in 50 mM Tris-HCl (pH 7.8) containing 1 mM ethylene glycol bis(b-aminoethyl ether)-N,N′-tetraacetic acid, 5 mM MgCl₂, 10 mg/ml leupeptin, 10 mg/ml pepstatin, 200 mg/ml bacitracin and 0.5 mg/ml aprotinin (buffer 1) and centrifuged at 24,000×g for 7 min at 4° C. The pellet was homogenized in buffer 1 using a Polytron (Brinkmann, setting 2.5, 30 sec). The homogenate was then centrifuged at 48,000×g for 20 min at 4° C. The pellet was homogenized in buffer 1 and this membrane preparation was used for the radioligand binding studies. […] The binding reaction was terminated by the addition of ice-cold 50 mM Tris-HCl buffer (pH 7.8) and rapid filtration over Whatman GF/B glass fiber filters which were pretreated with 0.5% polyethyleneimine/0.1% BSA for at least 1 hour. The filters were then washed with 12 mL of ice-cold Tris-HCl buffer and the bound radioactivity counted in a scintillation counter. Data from radioligand binding 10 studies were used to generate inhibition curves.

rat µ opioid receptor = molecular target: T1, rat µ opioid receptor (rat, UniProt P33535 1-398); experiment: competition vs [3H]DAMGO, COS-7 membranes
T1 construct: whole, on cells; Assayed in membranes of transfected COS-7 cells; also called cloned µ receptor; rat µ receptor
Protocol: (§1) Receptor binding assays were performed using membranes from either PC12 cells stably expressing the cloned mouse K receptor, CHO-DG44 cells stably expressing the mouse 8 receptor, or COS-7 cells transiently expressing the rat μ receptor 48-72 hours after transfection as previously described (4,10). For radioligand binding assays, cells were harvested in 50 mM Tris-HCl (pH 7.8) containing 1 mM ethylene glycol bis(β-aminoethyl ether)-N,N′-tetraacctic acid, 5 mM MgCl₂, 10 μg/ml leupeptin, 10 μg/ml pepstatin 200 μg/ml bacitracin and 0.5 μg/ml aprotinin (buffer 1) and centrifuged at 24,000 K g for 7 min at 4° C. The pellet was homogenized in buffer 1 using a Polytron (Brinkmann, setting 2.5 30 sec). The Homogenate was then centrifuged at 48,000 κ g for 20 min at 4° C. The pellet was homogenized in buffer 1 and this membrane preparation was used for the radioligand binding studies. […] The binding reaction was terminated by the addition of ice-cold 50 mM Tris-HCl buffer (pH 7.8) and rapid filtration over Whatman GF/B glass fiber filters which were pretreated with 0.5% polyethyleneimine/0.1% BSA for at least 1 hour. The filters were then washed with 12 mL of ice-cold Tris-HCl buffer and the bound radioactivity counted in a scintillation counter. Data from radioligand binding studies were used to generate inhibition curves.

[2] = molecular target: T2, mouse delta opioid receptor (mORD1) (mouse, UniProt P32300 1-372); experiment: competition vs [3H]naltrindole, CHO-DG44 membranes
T2 construct: Assayed in membranes of transfected COS-1, CHO-DG44 or COS-7 cells; also called msl-2; δ receptor
Protocol: as §1

[3] = molecular target: T3, mouse kappa opioid receptor (mORK1) (mouse, UniProt P33534 1-380); experiment: competition vs [3H]U-69,593, PC12 membranes
T3 construct: Assayed in membranes of transfected COS-1, PC12 or COS-7 cells; also called msl-1; κ receptor
Protocol: as §1

[4] = molecular target: T3, mouse kappa opioid receptor (mORK1); experiment: radioligand binding, COS-1 membranes
[5] = molecular target: T2, mouse delta opioid receptor (mORD1); experiment: radioligand binding, COS-1 membranes
[6] = molecular target: T4, κ1-78/δ70-372 chimeric opioid receptor (mouse); experiment: competition vs [3H]naloxone, COS-7 membranes
T4 construct: Expressed in COS-7 cells, membranes assayed
T4 chain: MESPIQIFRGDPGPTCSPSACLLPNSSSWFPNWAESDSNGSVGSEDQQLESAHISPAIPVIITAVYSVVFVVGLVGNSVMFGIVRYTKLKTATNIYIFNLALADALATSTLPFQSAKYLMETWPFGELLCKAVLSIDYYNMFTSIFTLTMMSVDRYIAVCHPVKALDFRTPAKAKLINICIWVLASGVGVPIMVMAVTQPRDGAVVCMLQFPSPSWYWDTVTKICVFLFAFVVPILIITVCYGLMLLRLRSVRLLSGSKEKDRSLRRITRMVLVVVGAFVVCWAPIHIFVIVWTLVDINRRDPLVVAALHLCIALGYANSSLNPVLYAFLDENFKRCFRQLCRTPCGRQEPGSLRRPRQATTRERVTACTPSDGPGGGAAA
Protocol: The homogenate is centrifuged at 48,000×g for 20 min at 4° C. and the pellet resuspended in Buffer 1 and used in the radioligand binding assay. […] All radioligands were obtained from NEN/Dupont (Boston, Mass.). […] The binding reaction is terminated by the addition of ice-cold 50 mM Tris-HCL (pH 7.8) and rapid filtration over Whatman GF/B glass fiber filters that were pretreated with 0.5% polyethleneimine and 0.1% bovine serum albumin. The filters were washed with 12 ml of ice-cold buffer and soaked overnight in scintillation fluid. The bound radioactivity was determined using a scintillation counter.

T1 sequence (P33535 whole entry): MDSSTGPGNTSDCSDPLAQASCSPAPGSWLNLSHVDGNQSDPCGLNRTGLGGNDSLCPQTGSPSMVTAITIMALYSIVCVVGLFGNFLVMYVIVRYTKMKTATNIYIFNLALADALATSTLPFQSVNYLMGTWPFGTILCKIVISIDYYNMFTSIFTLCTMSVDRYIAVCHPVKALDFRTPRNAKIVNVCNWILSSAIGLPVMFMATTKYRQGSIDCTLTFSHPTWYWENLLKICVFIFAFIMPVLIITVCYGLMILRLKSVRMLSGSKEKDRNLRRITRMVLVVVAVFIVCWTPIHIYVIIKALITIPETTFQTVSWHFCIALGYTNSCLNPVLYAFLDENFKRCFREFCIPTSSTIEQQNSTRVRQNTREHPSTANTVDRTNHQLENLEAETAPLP
Sequence of cloned human µ opioid receptor (P35372 whole entry): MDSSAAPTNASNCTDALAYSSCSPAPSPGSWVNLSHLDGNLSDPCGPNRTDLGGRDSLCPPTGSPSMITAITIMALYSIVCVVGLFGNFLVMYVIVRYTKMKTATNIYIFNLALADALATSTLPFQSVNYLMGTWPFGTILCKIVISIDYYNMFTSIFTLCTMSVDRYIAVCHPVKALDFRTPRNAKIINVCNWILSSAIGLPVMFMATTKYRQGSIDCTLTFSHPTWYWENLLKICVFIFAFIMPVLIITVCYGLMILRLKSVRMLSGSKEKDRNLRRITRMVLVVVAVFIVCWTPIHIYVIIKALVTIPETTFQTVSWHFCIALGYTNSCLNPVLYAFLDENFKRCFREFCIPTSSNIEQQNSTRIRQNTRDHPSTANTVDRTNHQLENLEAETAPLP

B1: CTOP (D-Phe-Cys-Tyr-D-Trp-Orn-Thr-Pen-Thr-NH2) (peptide)
peptide: FCYWXTXT
modifications: D-Phe at 1, D-Trp at 4, Orn at 5 (printed Om), Pen at 7, C-terminal NH2; X in the letters stands for Orn 5 and Pen 7
With B1 the Ki [1] was 3.9 nM.

B2: β-Endorphin (human) (peptide, UniProt P01189 237-267, looked up)
peptide: YGGFMTSEKSQTPLVTLFKNAIIKNAYKKGE
modifications: also: 125I-labelled where used as radioligand, site not given here
notes: domain: β-Endorphin; also called beta-endorphin
Work on B2 yielded a Ki (rat µ opioid receptor) of 1 nM and a Ki [2] of 1 nM.

YGGFM (peptide, UniProt P01210 100-104, looked up, domain: Met-enkephalin) [Met-enkephalin] gave a Ki [3] greater than 1000 nM.

AGCKNFFWKT[Tyr(125I)]TSC (peptide, UniProt P61278 103-116, looked up, ends and bridges not checked) [[125I-Tyr11] SRIF]: no binding [4]; no binding [5].

B3: des-Tyr1-β-endorphin (peptide, UniProt P01189 238-267, looked up)
peptide: GGFMTSEKSQTPLVTLFKNAIIKNAYKKGE
notes: domain: des-Tyr1-β-endorphin; also called des-Tyrl-β-endorphin
Binder B3 has a Ki (rat µ opioid receptor) greater than 1000 nM, a Ki [1] greater than 1000 nM and a Ki [3] greater than 1000 nM. It also gave a Ki [2] greater than 1000 nM.

For YGGFLRRIRPKLKWDNQ (peptide, UniProt P01213 207-223, looked up) [dynorphin (form not specified)], the IC50 [6] was 40 nM.
